# From the supplement of paper PMC10567573
# ± gives the standard deviation.
# Experiment: protein stability index of a GFP-peptide fusion (GPS, HEK-293T) (PSI 1-6); higher = more stable
# [1] = treatment: DMSO, c terminus: a fixed tail appended
# [2] = treatment: MLN4924 1 uM, 8 h, c terminus: a fixed tail appended
# 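Also: 24-mer peptide tiles fused after GFP, lentivirally expressed, FACS-sorted into six equal bins by GFP/DsRed ratio, decoded by Illumina sequencing, PSI is the read-weighted mean bin number.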
Sequence,protein stability index [1],protein stability index [2],"protein stability index (treatment: DMSO, c terminus: native)","protein stability index (treatment: MLN4924 1 uM, 8 h, c terminus: native)"
ISKMEPLEIPVETITSEVIEKCTT [CRY1],4.08 ± 0.64,4.32 ± 0.2,,
KKKAIQEEEERDQALQAKASLTIP [YJU2B],5.27 ± 0.22,5.4 ± 0.21,,
VTKITLESFLAWKKRKRQEKIDKL [ZC3H15],2.78 ± 0.81,2.6 ± 0.47,,
WASCLQYDFDTQYAFVGDYSGQIT [WDFY1],2.43 ± 0.39,2.2 ± 0.21,,
PSAILRTPESTKPGPVCQPPVSQS [ANKRD40],4.59 ± 0.23,4.45 ± 0.18,,
SQEPDPVQRLQAYTATEQEMQQQM [TRIM14],5.39 ± 0.15,5.17 ± 0.14,,
EARSYLSEEMIAEFKAAFDMFDAD [TNNC2],4.16 ± 0.46,4.15 ± 0.23,,
LLARGTMQPFNYVTLQCLAARALD [FEM1A],2.44 ± 0.16,2.22 ± 0.29,,
KRRPKREKHPKKPEPQQKAPLVPP [SRPK2],4.948 ± 0.035,4.99 ± 0.19,,
ETSVGTYESHSTSELEDLTEPEQR [TPD52L3],5.69 ± 0.14,5.45 ± 0.28,,
MGPDEYEEMEEEEEEEEEEDEDDD [FBXO3],5.42 ± 0.22,5.47 ± 0.14,,
NTDVSMENMVTVGFFSCMGTLCIG [KCNK9],2.81 ± 0.52,2.8 ± 0.61,,
CYSSRPLLCWSVWWALSTCGYFQV [SLC19A2],2.53 ± 0.19,3.55 ± 0.31,,
LEKWMQKNVEENLYSSSLGGGVAT [GLT8D2],3.44 ± 0.2,3.69 ± 0.26,,
AGRQSVSGRKNSTSKDLVTLGASS [C6orf223],4.4 ± 0.16,4.49 ± 0.13,,
SQFSGTLMRTCERLVKEGRFVPSN [PPTC7],3.12 ± 0.17,3.04 ± 0.4,,
LPPCAVRNLQDLARIYIRRTLRNF [PCMTD1],2.06 ± 0.29,2.04 ± 0.26,,
RTHTGEKPYKCTLCGENFSHRSNL [ZNF263],2.43 ± 0.27,2.79 ± 0.53,,
KIGDTKRNTPIEALCENFPEEMAT [CSNK1G1],5.14 ± 0.2,5.31 ± 0.2,,
TSAAYRYYIDDVFHALVREIRRKE [RIT1],2.16 ± 0.36,2.35 ± 0.26,,
MITLSEAYIQIWKRRDNDETNQQG [USP39],3.15 ± 0.31,3.31 ± 0.38,,
DYRGPDCRYLNFTKGEEISVYVKL [MIA2],2.45 ± 0.53,2.81 ± 0.95,,
TVVKSLIDNSSEIEDEDQILENSS [FAN1],5.202 ± 0.02,5.38 ± 0.13,,

Sequence,protein stability index [1],protein stability index [2],"protein stability index (treatment: DMSO, c terminus: native)","protein stability index (treatment: MLN4924 1 uM, 8 h, c terminus: native)"
EEKKLRRSQHARKETEFLRLKRTR [STK38L],3.01 ± 0.16,3.25 ± 0.27,,
VDYTGQAKAQVRKAVQYEEKNPCR [STX11],4.37 ± 0.17,4.59 ± 0.18,,
ERMRNSRDRLLNRYRQAGSSGPGN [RPAIN],4.12 ± 0.25,4.41 ± 0.27,,
FLSEEEYWKLQIFFTNVIQALGEH [CCNC],2.42 ± 0.96,2.36 ± 0.084,,
FFVSSINTLVTKTMEDTLMTVKQY [ARFIP2],3.08 ± 0.64,3.05 ± 1,,
HEVKCQGKPLAGIYRKREEKRNAG [KMT5A],4.64 ± 0.55,5.06 ± 0.1,,
ETSVVAQFGIKDVFDNAIRAALIS [RHOBTB2],2.28 ± 0.19,2.38 ± 0.38,,
LYYSNFVLALEERFGVRPKVTGYL [MFSD9],2.76 ± 0.86,2.91 ± 0.79,,
IVRRRSRDVPESPQHAADTPKSGE [YJU2B],5.06 ± 0.25,5.21 ± 0.22,,
VLMCGFPFLLLFLGNFFTTLRVVH [TMEM120A],2.95 ± 0.24,3.23 ± 0.48,,
GTQPRATKHKCRQLTKASLKPRGC [SPACA9],3.81 ± 0.29,3.95 ± 0.19,,
HSVLQGFIPLFQKFRLTGFRKTD [TMEM40],,,2.69 ± 0.62,2.69 ± 0.43
HLLEAEPLSPIQASSVHLKSESSL,4.16 ± 0.1,4.14 ± 0.15,,
ITTLRVPVLRPMDLMVEATPRRVF [PPP2R2B],2.52 ± 0.17,2.71 ± 0.27,,
RKQRRRERWLQKQGKYSGVGLLDH [RNF180],3.43 ± 0.26,3.94 ± 0.33,,
GCCVFAFLVGLLFVQRSGNYFVTM [SLC6A17],3.39 ± 0.34,3.12 ± 0.07,,
EQPHGRSRRREQSSSRNSHLVQHQ [ZNF8],4.78 ± 0.23,4.76 ± 0.28,,
GLKASLERLQLEYVDVVFANRPDP [KCNAB2],2.47 ± 0.42,2.21 ± 0.37,,
PPEQGKIFIARRSLLDELLEVDHI [SOAT1],2.76 ± 0.2,2.93 ± 0.32,,
SWKESSMNIIELEIPDQNIDVEAL [GMCL1],4.26 ± 0.23,4.08 ± 0.29,,
DSLKPEQLDIEEEGRPGAATFHVG [TFE3],5.38 ± 0.093,4.96 ± 0.4,,
SEGFESDSSHDSARASEGSDSGSD [SMG5],5.51 ± 0.3,5.7 ± 0.1,,
ASTEADKRLSRFDIEMSMRGDIFE [NLN],4.02 ± 0.57,4.14 ± 0.27,,

Sequence,protein stability index [1],protein stability index [2],"protein stability index (treatment: DMSO, c terminus: native)","protein stability index (treatment: MLN4924 1 uM, 8 h, c terminus: native)"
AREGAGLVVASGVIYCLGGYDGLN [KLHL12],2.81 ± 0.59,2.39 ± 0.51,,
IPPYSRASLKGYQWLKDKILSEEG [KCNAB2],2.64 ± 0.45,3.02 ± 0.54,,
CMHEVHTFVSTCQAIDATVAAELL [HES6],2.8 ± 0.85,2.34 ± 0.3,,
RKLSFSHSDHSSEMSLPEVQKDKY [SPATS1],4.85 ± 0.15,4.93 ± 0.2,,
DIREEIRKVVQSLEQTAREILTLL [TSN],3.73 ± 0.94,3.57 ± 0.3,,
SRRLQLGSEENGRYFSLSLMSGAL [PCDHGC5],2.27 ± 0.4,2.3 ± 0.35,,
TAPEEVPKVSDQALVSAHSEWQRK [DMRTC1],4.88 ± 0.61,5.07 ± 0.39,,
AIQAFLDKCSAPKIWRTPNGKTIE [IQUB],2.36 ± 0.48,2.27 ± 0.22,,
WAPASEGLKPGPEDGPGKEEAPEL [SERTAD1],5.5 ± 0.2,5.46 ± 0.41,,
IAKHLKGRLGKQCRERWHNHLNPE [MYBL2],2.25 ± 0.21,2.23 ± 0.13,,
DHYAAIKKAWDDLKKYLEPRCPRM [FBXO3],2.55 ± 0.22,2.69 ± 0.064,,
SDVVDWLYHNVEGFTDRREARKYA [DVL3],3.23 ± 0.31,3.53 ± 0.33,,
KIRDWYQRQAPGPARDYSQYYRTI [KRT17],2.19 ± 0.37,2.42 ± 0.31,,
GTIRPVRCPSSSLHMSQRERTWPP [C22orf15],3.77 ± 0.098,3.75 ± 0.17,,
KDTVICAMKITQEPQGLGYWEAWR [SPACA3],2.27 ± 0.49,2.22 ± 0.23,,
HEEEPLGTAGPLALARDLLSETAD [GMPPB],5.38 ± 0.42,5.18 ± 0.15,,
VEKQGDTIEYLKRHNALLSKRLLA [TMEM192],2.87 ± 0.13,2.93 ± 0.27,,
SRKKPIWNVLMWTSLFLGNGVLLC [SOAT1],2.67 ± 0.81,2.73 ± 0.61,,
YVRRLDFFEKPDYDYLRKLFTDLF [CSNK1G3],2.45 ± 0.52,2.06 ± 0.27,,
ANYIDGYRKQNAYIATQGSLPETF [PTPRD],2.94 ± 0.25,3.13 ± 0.45,,
NVEDEAETKKVLGLQDTITAELVV [PALM],4.3 ± 0.28,4.25 ± 0.18,,
ASVDYIRKLQKEQQRSKDLESRQR [TFE3],4.06 ± 0.24,4.18 ± 0.13,,
DMSYSIRHSISMPAMRNSPTFKSF [TPD52L1],2.94 ± 0.24,2.95 ± 0.32,,

Sequence,protein stability index [1],protein stability index [2],"protein stability index (treatment: DMSO, c terminus: native)","protein stability index (treatment: MLN4924 1 uM, 8 h, c terminus: native)"
IVSNFNYFYHRETENEEQTQLTQN [KCNA4],3.03 ± 0.12,3.38 ± 0.25,,
NRLMLAVRDMMANFHLNDLEAPHE [TCF25],2.5 ± 0.42,2.42 ± 0.24,,
EQDSGVQVEGLTVQYLGQAPELLG [ADAMTS4],4.38 ± 0.13,4.91 ± 0.34,,
AAVPGTQLSPSPTPASQSPKKPPA [SNAP91],5.44 ± 0.25,5.37 ± 0.33,,
APGVDLSRILNEMRDQYEQMAEKN [KRT16],4.27 ± 0.35,4.42 ± 0.16,,
ASLSNQECQLYPRRSQQQQVPVVD [SNURF],4.57 ± 0.14,4.46 ± 0.24,,
QFRVVRCWKMLSPGFDSSVYSDLC [ADAMTSL2],2.5 ± 1,2.32 ± 0.45,,
LTCDALTELLAKITNTDVDCLKAC [CCND2],2.37 ± 0.28,2.34 ± 0.27,,
AASEAGRAMHLMKKREKQREQMEQ [FAM50A],5.05 ± 0.25,4.87 ± 0.17,,
TIPLFVQLLYSPIENIQRVAAGVL [CTNNB1],2.77 ± 0.78,2.71 ± 0.38,,
LAMWTTALLHQAETLQPSVWFGGR [TMEM175],3 ± 0.56,2.82 ± 0.86,,
EPDLRHLVLVVNTLRRIQASMAPA [SERTAD1],2.66 ± 0.11,2.51 ± 0.14,,
SPSGAALPLPLSLAPPPLPLPAAA [ZBTB22],3.92 ± 0.25,4.2 ± 0.29,,
QTVTVEEAAGGESALAPSVFKQAK [MAP2],5.21 ± 0.32,5.38 ± 0.45,,
SLHVDDRERMELLEEAKKMEMAKF [RIPK4],4.92 ± 0.42,4.76 ± 0.15,,
LRSARGSRGGTRGWLPSHEGHLDD [RBMY1A1],4.7 ± 0.35,4.78 ± 0.17,,
EVLKVQTHLENPTRYHLQQARRQQ [TFE3],3.77 ± 0.23,3.91 ± 0.33,,
LCGPHAKAPYLCEATHEPAAARIR,3.75 ± 0.2,3.61 ± 0.24,,
YDITKEETFSTLKNWVKELRQHGP [RAB22A],2.85 ± 0.49,3.24 ± 0.16,,
QVNGHPDPFDEIILFSLPPALDWD [PTPN9],2.27 ± 0.23,2.31 ± 0.4,,
